Results from patent publication US20260116987A1 (Gilead, published 2026).

Columns and labels:
[1] = molecular target: T1, Human CCR4 expressed on CHO-S cells (human, UniProt P51679 1-360); assay: flow cytometry (PE-A), human CCR4-expressing CHO-S cells against parental CHO-S cells; antibody concentration not given
T1 construct: whole, on cells; also called CCR4-expressing CHO-S cells
T1 sequence (looked up): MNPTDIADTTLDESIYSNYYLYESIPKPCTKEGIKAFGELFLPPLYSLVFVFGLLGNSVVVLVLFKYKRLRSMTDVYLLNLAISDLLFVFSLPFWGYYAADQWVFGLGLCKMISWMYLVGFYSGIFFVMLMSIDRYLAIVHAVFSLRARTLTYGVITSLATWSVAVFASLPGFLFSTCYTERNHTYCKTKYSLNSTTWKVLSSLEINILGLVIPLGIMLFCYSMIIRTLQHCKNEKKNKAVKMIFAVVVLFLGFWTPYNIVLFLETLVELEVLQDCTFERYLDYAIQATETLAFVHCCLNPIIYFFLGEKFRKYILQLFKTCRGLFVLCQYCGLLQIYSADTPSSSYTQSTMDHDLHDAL

[2] = molecular target: CCR8-NT.MBP (CCR8 N-terminus peptide aa 1-35 fused with maltose binding protein); assay: ForteBio Octet, antibody captured on AHC biosensors, CCR8-NT.MBP as analyte
[3] = molecular target: T2, Human CCR8 (C-C chemokine receptor type 8) expressed on CHO-S cells (human, UniProt P51685 1-355); assay: flow cytometry epitope binning, tandem format, human CCR8-overexpressing cells; competitor 7-B16
T2 construct: also called huCCR8; human CCR8-expressing CHO-S cells
T2 sequence (P51685 whole entry): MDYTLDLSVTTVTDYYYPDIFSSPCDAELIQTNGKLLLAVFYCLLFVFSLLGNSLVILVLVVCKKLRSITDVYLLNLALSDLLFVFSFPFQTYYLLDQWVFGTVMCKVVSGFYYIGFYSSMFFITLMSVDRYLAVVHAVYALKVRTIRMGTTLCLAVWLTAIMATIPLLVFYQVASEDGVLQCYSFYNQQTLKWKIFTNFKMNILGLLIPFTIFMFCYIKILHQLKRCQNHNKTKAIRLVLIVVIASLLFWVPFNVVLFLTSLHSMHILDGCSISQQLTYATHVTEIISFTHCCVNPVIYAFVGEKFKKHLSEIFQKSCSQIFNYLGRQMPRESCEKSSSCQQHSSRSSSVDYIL
Procedure: (§1) A subset of antibodies against human CCR8 were epitope binned using flow cytometry method in tandem format. Briefly, one set of antibodies was biotinylated. Human CCR8-overexpressing cells were incubated at 4° C., with the non-biotinylated antibodies at 10 μg/mL for 1 hour, then without washing the biotinylated antibodies were added at 10 μg/mL. After a further 1-hour incubation, cells were washed three times and then stained with streptavidin-phycoerythrin (PE-strep) secondary antibody for 30 minutes. Binding competition was determined by detecting PE by flow cytometry. The response values were normalized as the % of the maximum binding of the individual antibody.

[4] = molecular target: T2, Human CCR8 (C-C chemokine receptor type …); assay: flow cytometry epitope binning, tandem format, human CCR8-overexpressing cells; competitor 19-O07
Procedure: as §1

[5] = molecular target: T3, Human CCR8 on human CCR8-overexpression lipoparticles (human, UniProt P51685 1-355); assay: sequential format ELISA on human CCR8-overexpression lipoparticles; competitor 1-K16
T3 sequence (P51685 whole entry): as above

[6] = molecular target: T2, Human CCR8 (C-C chemokine receptor type …); assay: flow cytometry epitope binning, tandem format, human CCR8-overexpressing cells; competitor 6-B09
Procedure: as §1

[7] = molecular target: T3, Human CCR8 on human CCR8-overexpression …; assay: sequential format ELISA on human CCR8-overexpression lipoparticles; competitor 7-B16
[8] = molecular target: T2, Human CCR8 (C-C chemokine receptor type …); assay: flow cytometry epitope binning, tandem format, human CCR8-overexpressing cells; competitor 1-K16
Procedure: as §1

[9] = molecular target: T3, Human CCR8 on human CCR8-overexpression …; assay: sequential format ELISA on human CCR8-overexpression lipoparticles; competitor 19-O07
[10] = molecular target: T1, Human CCR4 expressed on CHO-S cells; assay: flow cytometry
[11] = molecular target: T2, Human CCR8 (C-C chemokine receptor type …); assay: flow cytometry epitope binning, tandem format, human CCR8-overexpressing cells; competitor 1-K17
Procedure: as §1

[12] = molecular target: T3, Human CCR8 on human CCR8-overexpression …; assay: sequential format ELISA on human CCR8-overexpression lipoparticles; competitor 6-B09
[13] = molecular target: T3, Human CCR8 on human CCR8-overexpression …; assay: sequential format ELISA on human CCR8-overexpression lipoparticles; competitor 1-K17

B1: 6-B09 (mouse hybridoma antibody) (antibody, mouse IgG2a, kappa)
heavy: QVQLKESGPGLVAPSQSLSITCTVSGFSLARYDISWIRQPPGKGLEWLGVIWTGGGTNYNSAFMSRLSISKDNSKSQVFLKMNGLQTDDTAIYYCVSIRYDETYWGQGTLVTVSAAKTTAPSVYPLAPVCGDTTGSSVTLGCLVKGYFPEPVTLTWNSGSLSSGVHTFPAVLQSDLYTLSSSVTVTSSTWPSQSITCNVAHPASSTKVDKKIEPRGPTIKPCPPCKCPAPNLLGGPSVFIFPPKIKDVLMISLSPIVTCVVVDVSEDDPDVQISWFVNNVEVHTAQTQTHREDYNSTLRVVSALPIQHQDWMSGKEFKCKVNNKDLPAPIERTISKPKGSVRAPQVYVLPPPEEEMTKKQVTLTCMVTDFMPEDIYVEWTNNGKTELNYKNTEPVLDSDGSYFMYSKLRVEKKNWVERNSYSCSVVHEGLHNHHTTKSFSRTPG
light: QIVLTQSPAIMSASPGEKVTITCSASSSVIYMHWFQQKPGTSPKLWIYATSNLASGVPARFSGSGSGTSYSLTISRMEAEDAATYYCQQRSSYPLTFGAGTKLELKRADAAPTVSIFPPSSEQLTSGGASVVCFLNNFYPKDINVKWKIDGSERQNGVLNSWTDQDSKDSTYSMSSTLTLTKDEYERHNSYTCEATHKTSTSPIVKSFNRNEC
binding result [1]: no binding

B2: 13-E16 (mouse hybridoma antibody) (antibody, mouse IgG2a, kappa)
heavy: EVQLVETGGGLVQPKGSLKLSCAASGFTFSTNAMNWVRQAPGKGLEWIARIRSKSNNYATHYADSVKDRFTISRDDSQSILHLQMNNLKNEDTAMYYCVRDSHYYVSTYVGLAWFAYWGQGTLVTVSAAKTTAPSVYPLAPVCGDTTGSSVTLGCLVKGYFPEPVTLTWNSGSLSSGVHTFPAVLQSDLYTLSSSVTVTSSTWPSQSITCNVAHPASSTKVDKKIEPRGPTIKPCPPCKCPAPNLLGGPSVFIFPPKIKDVLMISLSPIVTCVVVDVSEDDPDVQISWFVNNVEVHTAQTQTHREDYNSTLRVVSALPIQHQDWMSGKEFKCKVNNKDLPAPIERTISKPKGSVRAPQVYVLPPPEEEMTKKQVTLTCMVTDFMPEDIYVEWTNNGKTELNYKNTEPVLDSDGSYFMYSKLRVEKKNWVERNSYSCSVVHEGLHNHHTTKSFSRTPG
light: QIVLTQSPAIMSASPGEKVTITCSASSSVSYMHWFQQKPGTSPKLWIYSTSNLASGVPARFSGSGSGTSYFLTISRMEAEDAATYYCQQRSSYPYTFGGGTKLERKRADAAPTVSIFPPSSEQLTSGGASVVCFLNNFYPKDINVKWKIDGSERQNGVLNSWTDQDSKDSTYSMSSTLTLTKDEYERHNSYTCEATHKTSTSPIVKSFNRNEC
binding result [1]: no binding

B3: 7B16-H3C4.001 (CDR H3 combo mutant of 7-B16) (antibody, V domains shown)
VH: EVQLVESGGGLVQPKGSLKLSCAASGFTFNTYAMNWVRQAPGKGLEWVARIRSKSNNYATYYADSVKDRFTISRDDSQSMLYLQMNNLKTEDTAMYYCARGLLRARFFDAWGAGTTVTVSS
VL: DIVMTQAEPSVPVTPGESISISCRSSKSLLHSNGNTYLYWFLQRPGQSPQLLIYRMSNLASGVPDRFSGSGSGTAFTLRISRVEAEDVGVYYCMQHLEYPFTFGGGTKLEIKR
Octet Response (nm) [2]: 0.404 nm

B4: 7B16-L2.001 (CDR L2 swapped mutant of 7-B16) (antibody, V domains shown)
VH: EVQLVESGGGLVQPKGSLKLSCAASGFTFNTYAMNWVRQAPGKGLEWVARIRSKSNNYATYYADSVKDRFTISRDDSQSMLYLQMNNLKTEDTAMYYCVRGLLRYRFFDVWGAGTTVTVSS
VL: DIVMTQAEPSVPVTPGESISISCRSSKSLLHSNGNTYLYWFLQRPGQSPQLLIYLGSNRASGVPDRFSGSGSGTAFTLRISRVEAEDVGVYYCMQHLEYPFTFGGGTKLEIKR
notes: also called CDR swapped variant L2
Octet Response (nm) [2]: 0.205 nm

B5: 1-K17 (mouse hybridoma antibody) (antibody, mouse IgG1, kappa)
heavy: QVQLQQPGAELVKPGASVKMSCKASGYTFTSYNMHWVKQTPGQGLEWIGAIYPGNGDTSYNQKFKGKATLTADKSSSTAYMHLSSLTSEDSAVYYCARKGGTPFAYWGQGTLLTVSAAKTTPPSVYPLAPGSAAQTNSMVTLGCLVKGYFPEPVTVTWNSGSLSSGVHTFPAVLESDLYTLSSSVTVPSSPRPSETVTCNVAHPASSTKVDKKIVPRDCGCKPCICTVPEVSSVFIFPPKPKDVLTITLTPKVTCVVVDISKDDPEVQFSWFVDDVEVHTAQTQPREEQFNSTFRSVSELPIMHQDWLNGKEFKCRVNSAAFPAPIEKTISKTKGRPKAPQVYTIPPPKEQMAKDKVSLTCMITDFFPEDITVEWQWNGQPAENYKNTQPIMNTNGSYFVYSKLNVQKSNWEAGNTFTCSVLHEGLHNHHTEKSLSHSPG
light: DVVMTQTPLSLPVSLGDQASISCRSSQSLVHSNGNTYLYWYLQKPGQSPKLLIYKVSNRFSGVPDRFSGSGSGTDFTLKISRVEAEDLGVYFCSQSTHVPYTFGGGTKLEIKRADAAPTVSIFPPSSEQLTSGGASVVCFLNNFYPKDINVKWKIDGSERQNGVLNSWTDQDSKDSTYSMSSTLTLTKDEYERHNSYTCEATHKTSTSPIVKSFNRNEC
binding result [1]: no binding

B6: 1-K16 (mouse hybridoma antibody) (antibody, mouse IgG1, kappa)
heavy: EVQLVETGGGLVQPKGSLKLSCAASGFTFNINAMNWVRQAPGKGLEWVARIRSKSNNYATYYADSVKDRFTISRDDSQSMLYLQMNNLKTEDTAMYYCVRGGYGSSPYDMDYWGQGTSVTVSSAKTTPPSVYPLAPGSAAQTNSMVTLGCLVKGYFPEPVTVTWNSGSLSSGVHTFPAVLESDLYTLSSSVTVPSSPRPSETVTCNVAHPASSTKVDKKIVPRDCGCKPCICTVPEVSSVFIFPPKPKDVLTITLTPKVTCVVVDISKDDPEVQFSWFVDDVEVHTAQTQPREEQFNSTFRSVSELPIMHQDWLNGKEFKCRVNSAAFPAPIEKTISKTKGRPKAPQVYTIPPPKEQMAKDKVSLTCMITDFFPEDITVEWQWNGQPAENYKNTQPIMNTNGSYFVYSKLNVQKSNWEAGNTFTCSVLHEGLHNHHTEKSLSHSPG
light: DIVMTQAAPSVPVTPGESVSISCRSSKSLLHSNGNTYLYWFLQRPGQSPQLLIYRMSNLASGVPDRFSGSGSGTAFTLRISRVEAEDVGVYYCMQHLEYPFTFGAGTKLELKRADAAPTVSIFPPSSEQLTSGGASVVCFLNNFYPKDINVKWKIDGSERQNGVLNSWTDQDSKDSTYSMSSTLTLTKDEYERHNSYTCEATHKTSTSPIVKSFNRNEC
binding result [1]: no binding

B7: 19-O07 (mouse hybridoma antibody) (antibody, human IgG1)
heavy: EVQLQQSVAELVRPGASVKLSCTASGFNIKNTQMHWVKQRPEQGLEWIGRIDPANGNTKYAPKFQGKATITGDTSSNTAYLQLSSLTSEDTAIYYCARFDYYYGSGDYAMDYWGQGTSVTVSSTTTAPSVYPLVPGCSDTSGSSVTLGCLVKGYFPEPVTVKWNYGALSSGVRTVSSVLQSGFYSLSSLVTVPSSTWPSQTVICNVAHPASKTELIKRIEPRIPKPSTPPGSSCPPGNILGGPSVFIFPPKPKDALMISLTPKVTCVVVDVSEDDPDVHVSWFVDNKEVHTAWTQPREAQYNSTFRVVSALPIQHQDWMRGKEFKCKVNNKALPAPIERTISKPKGRAQTPQVYTIPPPREQMSKKKVSLTCLVTNFFSEAISVEWERNGELEQDYKNTPPILDSDGTYFLYSKLTVDTDSWLQGEIFTCSVVHEALHNHHTQKNLSRSP
light: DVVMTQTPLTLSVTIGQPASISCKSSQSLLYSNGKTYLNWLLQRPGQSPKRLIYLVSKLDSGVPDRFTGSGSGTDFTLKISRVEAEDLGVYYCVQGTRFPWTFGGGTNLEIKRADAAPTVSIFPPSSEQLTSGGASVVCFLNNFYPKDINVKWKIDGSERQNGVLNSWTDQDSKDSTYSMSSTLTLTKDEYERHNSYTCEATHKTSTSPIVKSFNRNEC
notes: also called 19-007
binding result [1]: no binding

B8: 6-B09 chimera (human IgG1) (antibody)
heavy: not shown
light: QIVLTQSPAIMSASPGEKVTITCSASSSVIYMHWFQQKPGTSPKLWIYATSNLASGVPARFSGSGSGTSYSLTISRMEAEDAATYYCQQRSSYPLTFGAGTKLELKRTVAAPSVFIFPPSDEQLKSGTASVVCLLNNFYPREAKVQWKVDNALQSGNSQESVTEQDSKDSTYSLSSTLTLSKADYEKHKVYACEVTHQGLSSPVTKSFNRGEC
notes: also called 6-B09 chimeric antibody
% of the maximum binding [3]: 89% | % of the maximum binding [4]: 32% | ELISA epitope binning signal [5]: 0.8 | % of the maximum binding [6]: 44% | ELISA epitope binning signal [7]: 0.776 | % of the maximum binding [8]: 102% | ELISA epitope binning signal [9]: 0.577 | binding result [10]: no binding | % of the maximum binding [11]: 94% | ELISA epitope binning signal [12]: 0.512 | ELISA epitope binning signal [13]: 0.82
